Test results: patent US20190169308A1 (ALLIGATOR BIOSCIENCE, published 2019)
Changes are numbered by the printed parent chain.

Assays:
[1] = biological target: T1, recombinant human CD137-Fc (R&D #838-4B) (human, UniProt Q07011 24-186); test: ELISA, coated CD137-Fc
T1 construct: bought; also called CD137 (R&D #838-4B); not shown: Fc part, bought reagent, not described
Protocol: Binding of CD137 antibodies to recombinant human CD137 was determined by sandwich ELISA. Briefly, ELISA plates (Greiner #655074) coated with recombinant human CD137-Fc (R&D #838-4B) were incubated with serial dilutions of the various CD137 antibodies to be investigated. CD137 antibodies were detected using HRP-conjugated goat-anti-human kappa light chain (AbD Serotec #STAR127P) and developed with SuperSignal ELISA Pico Chemiluminescent substrate (Pierce #37069). EC50 values of the various antibodies were determined in 2-6 separate experiments.

[2] = biological target: T2, full-length human CD137 construct 1030 (human, UniProt Q07011 24-255); test: flow cytometry, 293-F cells with full-length CD137 (reference of the normalization)
T2 construct: whole, on cells; on transfected FreeStyle 293-F cells; also called Full-length CD137
T2 sequence (Q07011 24-255): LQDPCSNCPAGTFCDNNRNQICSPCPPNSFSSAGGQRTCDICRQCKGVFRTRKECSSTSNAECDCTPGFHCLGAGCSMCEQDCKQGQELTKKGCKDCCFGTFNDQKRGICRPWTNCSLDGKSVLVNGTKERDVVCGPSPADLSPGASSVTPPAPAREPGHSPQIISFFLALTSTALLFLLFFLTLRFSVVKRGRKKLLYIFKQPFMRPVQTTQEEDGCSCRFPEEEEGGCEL
Protocol: (§1) The ability of each antibody to bind to a panel of human/mouse CD137 chimeras expressed on the surface of transfected cells was analyzed by flow cytometry.
(§2) The chimeras were designed by exchanging domains or modules of the human CD137 with the corresponding mouse domain (FIG. 7). Genes of CD137 human/mouse chimeras were synthesized (GenScript) and constructs cloned into pcDNA3.1 vector (Invitrogen) and transiently transfected into FreeStyle 293-F cells (Invitrogen). The transfected cells were incubated with CD137 antibodies and control antibodies, followed by incubation with anti-human IgG-PE (Jackson Immunoresearch) for detection and analyzed with FACS Verse (BD Biosciences). Binding to the different chimeric constructs was calculated as relative MFI compared to the binding of the isotype control, followed by normalization to the full-length human CD137 construct to minimize the effect of affinity differences between individual antibodies.

[3] = biological target: T3, human CD137 on transfected CHO cells (human, UniProt Q07011 24-186; P25942 194-277, limits assumed); test: flow cytometry, CHO-huCD137; 95% CI of EC50
T3 construct: extracellular domain;domain: transmembrane and intracellular part; also called CHO-huCD137; CHOhCD137
T3 sequence (Q07011 other isoform, or with tags, fused parts or gaps limits assumed): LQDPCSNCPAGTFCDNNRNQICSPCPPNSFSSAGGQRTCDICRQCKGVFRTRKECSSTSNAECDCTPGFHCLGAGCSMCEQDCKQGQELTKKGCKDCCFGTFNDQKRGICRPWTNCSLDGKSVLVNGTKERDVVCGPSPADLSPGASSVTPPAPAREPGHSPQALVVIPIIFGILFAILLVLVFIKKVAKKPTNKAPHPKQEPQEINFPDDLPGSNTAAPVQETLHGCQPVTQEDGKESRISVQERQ
Protocol: Binding and EC50 was determined using flow cytometric analysis of CHO cells transfected with human CD137, cynomolgus CD137 or empty vector. The extracellular part of human or cynomolgus CD137 was fused to the transmembrane and intracellular part of human CD40 and cloned into pcDNA3.1. The vector was subsequently stably transfected into CHO cells. […] CD137-transfected and empty vector-transfected cells were incubated with CD137 antibodies for at least 1h at 4° C. to saturate the binding. In order to minimize antibody internalization, 0.05% sodium azide was used in the incubation buffer and all work was performed on ice. […] Directly after staining the cells were fixed with a paraformaldehyde solution (10x concentrate BD CellFIX, BD biosciences #340181). Cells were analyzed by flow cytometry using FACSVerse (BD Biosciences). The median fluorescence intensity (MFI) for each sample was determined and the dose response data was analysed using Graph Pad Prism.
MFI data was normalized for each antibody, where 0% is defined as the lowest value and 100% is the highest value in the dose titration for each antibody.

[4] = biological target: T4, recombinant human OX40 (R&D #1493-CD) (human, UniProt P43489 29-216, limits assumed); test: ELISA, coated OX40
T4 sequence (looked up): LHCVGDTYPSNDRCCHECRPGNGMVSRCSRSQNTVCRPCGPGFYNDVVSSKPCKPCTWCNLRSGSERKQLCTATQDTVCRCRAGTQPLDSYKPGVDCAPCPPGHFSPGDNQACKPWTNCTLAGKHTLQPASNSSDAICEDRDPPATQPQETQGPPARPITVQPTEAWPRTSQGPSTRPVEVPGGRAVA
Protocol: (§3) ELISA plates (Greiner #655074) were coated with 50 μl/well of recombinant human OX40 (R&D #1493-CD), CD40-Fc (Ancell #504-820) or CD137 (R&D #838-4B) diluted to a final concentration of 0.5 μg/ml in PBS for 1h at 37° C. or overnight at 4° C. Plates were washed with PBS+0.05% TWEEN20 (PBST), followed by block with PBST+1% bovine serum albumin (BSA). Antibody samples were prepared as serial 1/10 dilutions from 10-0.01 μg/ml in PBST+1% BSA and incubated for 1 h in room temperature, followed by detection using a horse radish peroxidase-conjugated anti-human kappa light chain antibody (AbD Serotec #STAR127P) and developed using SuperSignal ELISA Pico Chemiluminescent substrate (Pierce ThermoScientific #37069).

[5] = biological target: T5, CD40-Fc (Ancell #504-820) (human, UniProt P25942 21-193); test: ELISA, coated CD40-Fc
T5 construct: not shown: Fc part, bought reagent, not described
T5 sequence (P25942 21-193 limits assumed): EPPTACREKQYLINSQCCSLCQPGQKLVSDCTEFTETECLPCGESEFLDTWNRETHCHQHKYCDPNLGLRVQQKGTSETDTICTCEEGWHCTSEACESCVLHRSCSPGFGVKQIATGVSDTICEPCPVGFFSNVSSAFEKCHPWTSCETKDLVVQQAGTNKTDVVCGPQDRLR
Protocol: as §3

[6] = biological target: T6, human/mouse CD137 chimera 1555; test: flow cytometry, 293-F cells with CD137 chimera
T6 construct: on transfected FreeStyle 293-F cells
Protocol: as §1, §2

[7] = biological target: T7, human/mouse CD137 chimera 1553; test: flow cytometry, 293-F cells with CD137 chimera
T7 construct: on transfected FreeStyle 293-F cells
Protocol: as §1, §2

[8] = biological target: T8, human/mouse CD137 chimera 1552; test: flow cytometry, 293-F cells with CD137 chimera
T8 construct: on transfected FreeStyle 293-F cells
Protocol: as §1, §2

[9] = biological target: T9, human/mouse CD137 chimera 1554; test: flow cytometry, 293-F cells with CD137 chimera
T9 construct: on transfected FreeStyle 293-F cells
Protocol: as §1, §2

[10] = biological target: T10, human/mouse CD137 chimera 1550; test: flow cytometry, 293-F cells with CD137 chimera
T10 construct: on transfected FreeStyle 293-F cells
Protocol: as §1, §2

[11] = biological target: T11, human/mouse CD137 chimera 1551; test: flow cytometry, 293-F cells with CD137 chimera
T11 construct: on transfected FreeStyle 293-F cells
Protocol: as §1, §2

T1 sequence (Q07011 24-186 limits assumed): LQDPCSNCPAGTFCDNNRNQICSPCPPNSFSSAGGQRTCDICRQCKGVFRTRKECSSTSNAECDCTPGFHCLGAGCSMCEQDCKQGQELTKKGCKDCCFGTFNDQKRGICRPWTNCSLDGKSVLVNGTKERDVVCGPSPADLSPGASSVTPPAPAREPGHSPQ

B1: 1200/1201 (antibody, V domains shown)
VH: EVQLLESGGGLVQPGGSLRLSCAASGFTFSSYAMSWVRQAPGKGLEWVSGISGGGGGTYYADSVKGRFTISRDNSKNTLYLQMNSLRAEDTAVYYCARDVAYFDYWGQGTLVTVSS
VL: DIQMTQSPSSLSASVGDRVTITCRASQSISSYLNWYQQKPGKAPKLLIYAASSLQSGVPSRFSGSGSGTDFTLTISSLQPEDFATYYCQQYYIPHTFGQGTKLEIK
- EC50 [1]: 0.39 nM
- MFI/isotype control normalized to full-length human CD137 [2]: 1
- EC50 [3]: 0.2 to 0.36 µg/mL
- binding result [4]: no binding (tested: 10 µg/ml)
- binding result [5]: no binding (tested: 10 µg/ml)
- MFI/isotype control normalized to full-length human CD137 [6]: 0.24
- MFI/isotype control normalized to full-length human CD137 [7]: 0.65
- MFI/isotype control normalized to full-length human CD137 [8]: 0.05
- MFI/isotype control normalized to full-length human CD137 [9]: 0.84
- MFI/isotype control normalized to full-length human CD137 [10]: 0.05
- MFI/isotype control normalized to full-length human CD137 [11]: 0.04

B2: 1620/1621 (antibody, V domains shown)
VH: EVQLLESGGGLVQPGGSLRLSCAASGFTFSGYYMYWVRQAPGKGLEWVSGISSSGSYTYYADSVKGRFTISRDNSKNTLYLQMNSLRAEDTAVYYCARSVGPYFDYWGQGTLVTVSS
VL: B1 VL with Y91G, Y92V, I93G, H95Y
- binding result [4]: no binding (tested: 10 µg/ml)
- binding result [5]: no binding (tested: 10 µg/ml)
- MFI/isotype control normalized to full-length human CD137 [6]: 0.32
- MFI/isotype control normalized to full-length human CD137 [7]: 0.17
- MFI/isotype control normalized to full-length human CD137 [8]: 0.18
- MFI/isotype control normalized to full-length human CD137 [9]: 0.17
- MFI/isotype control normalized to full-length human CD137 [10]: 0.17
- MFI/isotype control normalized to full-length human CD137 [11]: 0.33

B3: 1204/1205 (antibody, V domains shown)
VH: EVQLLESGGGLVQPGGSLRLSCAASGFTFSSYYMGWVRQAPGKGLEWVSGIGSYYGYTGYADSVKGRFTISRDNSKNTLYLQMNSLRAEDTAVYYCARAYYDYNYYYAYFDYWGQGTLVTVSS
VL: DIQMTQSPSSLSASVGDRVTITCRASQSISSYLNWYQQKPGKAPKLLIYAASSLQSGVPSRFSGSGSGTDFTLTISSLQPEDFATYYCQQSVPHYPFTFGQGTKLEIK
- binding result [4]: no binding (tested: 10 µg/ml)
- binding result [5]: no binding (tested: 10 µg/ml)
- MFI/isotype control normalized to full-length human CD137 [6]: 0.28
- MFI/isotype control normalized to full-length human CD137 [7]: 0.85
- MFI/isotype control normalized to full-length human CD137 [8]: 0.13
- MFI/isotype control normalized to full-length human CD137 [9]: 0.73
- MFI/isotype control normalized to full-length human CD137 [10]: 0.07
- MFI/isotype control normalized to full-length human CD137 [11]: 0.11

B4: 1626/1627 (antibody, V domains shown)
VH: EVQLLESGGGLVQPGGSLRLSCAASGFTFGGYSMYWVRQAPGKGLEWVSSIGGYYYSTYYADSVKGRFTISRDNSKNTLYLQMNSLRAEDTAVYYCARSYYGSIDYWGQGTLVTVSS
VL: B3 VL with S91G, V92T, P93G, H94Y, Y95G, F97L
- binding result [4]: no binding (tested: 10 µg/ml)
- binding result [5]: no binding (tested: 10 µg/ml)
- MFI/isotype control normalized to full-length human CD137 [6]: 0.29
- MFI/isotype control normalized to full-length human CD137 [7]: 0.14
- MFI/isotype control normalized to full-length human CD137 [8]: 0.11
- MFI/isotype control normalized to full-length human CD137 [9]: 0.12
- MFI/isotype control normalized to full-length human CD137 [10]: 0.1
- MFI/isotype control normalized to full-length human CD137 [11]: 0.11
